pKd: −log10 of the molar value.

For assay [1], the target named is human IL-5 protein (purchased from Beijing Yiqiao Shenzhou) (human) (UniProt P05113). The assay can be described thus: SPR Biacore T200, antibody captured on Protein A/G, IL-5 as analyte. (Surface plasmon resonance follows binding to a sensor surface in real time, without labels.)
For assay [2], the target named is IL-5 mutant 104L to Alanine, with His-tag (human) (UniProt P05113). The experiment in a line: capture ELISA: His-tagged IL-5 from HEK293E supernatant captured with murine anti-His antibody, detected with Goat-anti-Human-Fc-Specific-HRP; mean of four wells. Background: An ELISA detects its analyte on a solid surface through an enzyme-linked reagent.
Assay [3] has as its target IL-5 mutant 96F to Alanine, with His-tag (human) (UniProt P05113). Described as above.
In assay [4] the target is IL-5 mutant 86C to Alanine, with His-tag (human) (UniProt P05113). The description is as above.
For assay [5], the target named is human IL-5 protein (purchased from Beijing Yiqiao Shenzhou) (human) (UniProt P05113). The experiment in a line: cell-based or functional assay.

Sequence of Nucala (Mepolizumab) (antibody) (VH): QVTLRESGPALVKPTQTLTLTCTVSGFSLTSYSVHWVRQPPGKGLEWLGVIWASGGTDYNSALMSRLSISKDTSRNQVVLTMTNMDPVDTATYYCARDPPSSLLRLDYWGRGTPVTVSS
Sequence of Nucala (Mepolizumab) (antibody) (VL): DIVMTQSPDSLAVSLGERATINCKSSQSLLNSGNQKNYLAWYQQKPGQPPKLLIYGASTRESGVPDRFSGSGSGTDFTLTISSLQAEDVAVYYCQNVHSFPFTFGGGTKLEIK

On to Nucala (Mepolizumab) (antibody), for which the pKd (in general, the negative decadic logarithm of the Kd, by convention in mol/L) in assay [1] is 9.70. In addition, the figures for the OD450 in assay [2], in assay [3] and in assay [4] were 0.109, 0.19 and 0.0967, respectively. In assay [5], this substance yielded an IC50 for inhibiting IL-5-induced TF-1 cell proliferation (Nucala) of 0.0708 µg/mL.

These data come from patent publication US20210171621A1.
